Legend:
Type in all cases: in vivo, human
[1] = tested on: advanced metastatic hepatocellular carcinoma; experiment: Single arm phase 2 first-line trial of bavituximab and immune checkpoint inhibitor, outcome by TME phenotype; design: 6 month progression-free survival (6-month PFS): concentration or dose not given beside the values
Procedure: (§1) A single arm phase 2 clinical trial is run to determine whether advanced metastatic hepatocellular carcinoma tumor microenvironment phenotypes correlate to clinical responses when patients are treated with Bavituximab and an immune checkpoint inhibitor in the first-line setting. The analysis includes samples from 28 patients. RNA gene signatures are analyzed from tumor samples acquired before any treatments and TME phenotypes are determined. Patients are followed for clinical response, progression-free survival, and overall survival.
(§2) Hepatocellular carcinoma patients receive a regimen of Bavituximab plus an immune checkpoint inhibitor (anti-PD-(L)1—i.e., an inhibitor to PD-1 or PD-L1) therapy. […] Twenty-eight (28) patients are enrolled, with equal representation across the 4 stromal phenotypes (7 in each phenotype). The correlation between each TME phenotype is tested against clinical outcome data. In patients that are biomarker positive, represented by immune active (IA) and immune suppressed (IS) phenotypes, the use of the regimen of Bavituximab/immune checkpoint inhibitor confers benefit in comparison to patients classified as biomarker negative, comprised of angiogenic (A) and immune desert (ID) TME phenotype classes, as shown in the TABLE 31.

[2] = tested on: recurrent/metastatic squamous carcinoma of head and neck (HNSCC); experiment: Single arm phase 2 trial of bavituximab and immune checkpoint inhibitor after progression on an immune checkpoint inhibitor, outcome by TME phenotype
Procedure: as §1, with “recurrent/metastatic squamous” for “advanced metastatic hepatocellular”, “carcinoma of head and neck (HNSCC)” for “carcinoma”, “following progression on an immune checkpoint inhibitor (e.g., nivolumab, pembrolizumab, durvalumab, atezolizumab, etc.).” for “in the first-line setting.”
as §2, with “HNSCC” for “Hepatocellular carcinoma”, “In” for “In patients that are”, “positive patients,” for “positive,”, “32.” for “31.”

[3] = tested on: advanced colorectal cancers metastatic to liver (mCRC); experiment: Phase 2 trial of navicixizumab, innate immune activating agent and PD-(L)1 agent (3L+), outcome by TME phenotype; design: mPFS: unit not given beside the values; settings: 3L+ mCRC
Description: A phase 2 clinical trial is run to determine clinical benefit in patients with advanced colorectal cancers metastatic to liver (mCRC) treated with a triplet combination of navicixizumab, an innate immune activating agent, and a PD-(L)1 agent. In this setting, regorafenib or trifluoridine/tipiracil therapy typically yield a median PFS (mPFS) of ˜2 months and median OS (mOS) of ˜7 months. […] The analysis includes enrollment of 60 patients with prospectively defined, retrospective analysis of liver metastatic lesions by the classifying the TME phenotypes as A, IA, IS or ID.
MSS+ advanced colorectal cancer patients (3L+) with liver metastases are treated with the triplet combination of navicixizumab, an anti-PD(L)1 therapy and an innate immune stimulating agent, such as the Dectin agonist Imprime PGG, the STING agonist BMS-986301 and the NLR agonist BMS-986299. ORR, mPFS, 3-month PFS rate, mOS and OS rate at 9 months are assessed across all TME phenotypes. […] patients received a greater clinical benefit than the standard of care for 3L+ mCRC with regorafenib or trifluoridine/tipiracil.

[4] = tested on: metastatic gliomas and glioblastoma; experiment: Clinical trial of radiation, bavituximab and a checkpoint inhibitor, best objective response versus TME biomarker status
Procedure: A clinical trial is run to treat metastatic gliomas and glioblastoma with a combination of radiation, the anti-phosphatidylserine (anti-PS) targeting antibody bavituximab, and a checkpoint inhibitor (CPI), such as a PD-(L)1, e.g. pembrolizumab or nivolumab. Tumor tissue samples from surgical resections of glioblastoma are RNA sequenced and TME phenotypes are determined. Patients are followed for ORR.

B1: Bavituximab/immune checkpoint inhibitor: bavituximab plus an immune checkpoint inhibitor (anti-PD-(L)1) (antibody, chains of the INN, looked up, V domains shown)
VH: EVQLQQSGPELEKPGASVKLSCKASGYSFTGYNMNWVKQSHGKSLEWIGHIDPYYGDTSYNQKFRGKATLTVDKSSSTAYMQLKSLTSEDSAVYYCVKGGYYGHWYFDVWGAGTTVTVSS
VL: DIQMTQSPSSLSASLGERVSLTCRASQDIGSSLNWLQQGPDGTIKRLIYATSSLDSGVPKRFSGSRSGSDYSLTISSLESEDFVDYYCLQYVSSPPTFGAGTKLELK
modifications: plus immune checkpoint inhibitor
- 6 month progression-free survival (6-month PFS) ([1]; all patients, first-line): ~57.2%
- Overall response rate (ORR) ([1]; all patients, first-line): ~32%
- overall survival (OS) ([1]; all patients, first-line): ~20 months

B2: Bavituximab plus immune checkpoint inhibitor (antibody, chains of the INN, looked up, V domains shown)
VH: B1 VH
VL: B1 VL
modifications: plus immune checkpoint inhibitor
- 6-month progression free survival (PFS) rate ([1]; Biomarker Negative (n = 14)): 35.7%
- Overall response rate (ORR) ([1]; Biomarker Negative (n = 14)): 14%
- overall survival (OS) ([1]; Biomarker Negative (n = 14)): 16.2 months
- 6-month progression free survival (PFS) rate ([1]; Biomarker Positive (n = 14)): 78.6%
- Overall response rate (ORR) ([1]; Biomarker Positive (n = 14)): 50%
- overall survival (OS) ([1]; Biomarker Positive (n = 14)): 23.8 months
- 6-month progression free survival (PFS) rate ([1]; TME phenotype A (n = 7)): 42.8%
- Overall response rate (ORR) ([1]; TME phenotype A (n = 7)): 14%
- overall survival (OS) ([1]; TME phenotype A (n = 7)): 16.7 months
- 6-month progression free survival (PFS) rate ([1]; TME phenotype IA (n = 7)): 71.4%
- Overall response rate (ORR) ([1]; TME phenotype IA (n = 7)): 43%
- overall survival (OS) ([1]; TME phenotype IA (n = 7)): 22.4 months
- 6-month progression free survival (PFS) rate ([1]; TME phenotype ID (n = 7)): 28.6%
- Overall response rate (ORR) ([1]; TME phenotype ID (n = 7)): 14%
- overall survival (OS) ([1]; TME phenotype ID (n = 7)): 15.7 months
- 6-month progression free survival (PFS) rate ([1]; TME phenotype IS (n = 7)): 85.7%
- Overall response rate (ORR) ([1]; TME phenotype IS (n = 7)): 57%
- overall survival (OS) ([1]; TME phenotype IS (n = 7)): 25.2 months
- Overall response rate (ORR) ([2]; Biomarker Negative (n = 14)): 14.3%
- overall survival (OS) ([2]; Biomarker Negative (n = 14)): 7.8 months
- progression free survival (PFS) ([2]; Biomarker Negative (n = 14)): 2.5 months
- Overall response rate (ORR) ([2]; Biomarker Positive (n = 14)): 36.4%
- overall survival (OS) ([2]; Biomarker Positive (n = 14)): 11.2 months
- progression free survival (PFS) ([2]; Biomarker Positive (n = 14)): 5.5 months
- Overall response rate (ORR) ([2]; TME phenotype A (n = 7)): 14.3%
- overall survival (OS) ([2]; TME phenotype A (n = 7)): 8.6 months
- progression free survival (PFS) ([2]; TME phenotype A (n = 7)): 2.6 months
- Overall response rate (ORR) ([2]; TME phenotype IA (n = 7)): 28.6%
- overall survival (OS) ([2]; TME phenotype IA (n = 7)): 11.0 months
- progression free survival (PFS) ([2]; TME phenotype IA (n = 7)): 5.3 months
- Overall response rate (ORR) ([2]; TME phenotype ID (n = 7)): 14.3%
- overall survival (OS) ([2]; TME phenotype ID (n = 7)): 7.0 months
- progression free survival (PFS) ([2]; TME phenotype ID (n = 7)): 2.4 months
- Overall response rate (ORR) ([2]; TME phenotype IS (n = 7)): 42.9%
- overall survival (OS) ([2]; TME phenotype IS (n = 7)): 11.4 months
- progression free survival (PFS) ([2]; TME phenotype IS (n = 7)): 5.7 months

B3: navicixizumab, an anti-PD(L)1 therapy and an innate immune stimulating agent (antibody, chains of the INN, looked up, V domains shown)
VH: QVQLVQSGAEVKKPGASVKISCKASGYSFTAYYIHWVKQAPGQGLEWIGYISNYNRATNYNQKFKGRVTFTTDTSTSTAYMELRSLRSDDTAVYYCARDYDYDVGMDYWGQGTLVTVSS
VL: DIVMTQSPDSLAVSLGERATISCRASESVDNYGISFMKWFQQKPGQPPKLLIYAASNQGSGVPDRFSGSGSGTDFTLTISSLQAEDVAVYYCQQSKEVPWTFGGGTKVEIK
VH2: QVQLVQSGAEVKKPGASVKVSCKASGYTFTNYWMHWVRQAPGQGLEWMGDINPSNGRTSYKEKFKRRVTLSVDKSSSTAYMELSSLRSEDTAVYFCTIHYDDKYYPLMDYWGQGTLVTVSS
VL2: B3 VL
modifications: with anti-PD(L)1 and innate immune stimulant
- ORR ([3]; TME phenotype A (n = 12)): 25%
- PFS rate (3 month) ([3]; TME phenotype A (n = 12)): 30%
- mOS ([3]; TME phenotype A (n = 12)): 12 mos
- mPFS ([3]; TME phenotype A (n = 12)): 6
- ORR ([3]; TME phenotype IA (n = 12)): 35%
- OS rate (9 month) ([3]; TME phenotype IA (n = 12)): 50%
- PFS rate (3 month) ([3]; TME phenotype IA (n = 12)): 30%
- mOS ([3]; TME phenotype IA (n = 12)): 12 mos
- mPFS ([3]; TME phenotype IA (n = 12)): 6
- ORR ([3]; TME phenotype ID (n = 24)): 20%
- OS rate (9 month) ([3]; TME phenotype ID (n = 24)): 40%
- PFS rate (3 month) ([3]; TME phenotype ID (n = 24)): 30%
- mOS ([3]; TME phenotype ID (n = 24)): 10 mos
- mPFS ([3]; TME phenotype ID (n = 24)): 4
- ORR ([3]; TME phenotype IS (n = 12)): 30%
- OS rate (9 month) ([3]; TME phenotype IS (n = 12)): 45%
- PFS rate (3 month) ([3]; TME phenotype IS (n = 12)): 30%
- mOS ([3]; TME phenotype IS (n = 12)): 11 mos
- mPFS ([3]; TME phenotype IS (n = 12)): 5

B4: bavituximab, checkpoint inhibitor, and radiation (antibody, chains of the INN, looked up, V domains shown)
VH: B1 VH
VL: B1 VL
modifications: with checkpoint inhibitor and radiation
- Best Objective Response CR, number of patients ([4]; TME A): 0
- Best Objective Response PD, number of patients ([4]; TME A): 4
- Best Objective Response PR, number of patients ([4]; TME A): 1
- Best Objective Response SD, number of patients ([4]; TME A): 1
- Best Objective Response CR, number of patients ([4]; TME IA): 0
- Best Objective Response PD, number of patients ([4]; TME IA): 4
- Best Objective Response PR, number of patients ([4]; TME IA): 3
- Best Objective Response SD, number of patients ([4]; TME IA): 2
- Best Objective Response CR, number of patients ([4]; TME ID): 0
- Best Objective Response PD, number of patients ([4]; TME ID): 6
- Best Objective Response PR, number of patients ([4]; TME ID): 1
- Best Objective Response SD, number of patients ([4]; TME ID): 1
- Best Objective Response CR, number of patients ([4]; TME IS): 0
- Best Objective Response PD, number of patients ([4]; TME IS): 4
- Best Objective Response PR, number of patients ([4]; TME IS): 4
- Best Objective Response SD, number of patients ([4]; TME IS): 4

— patent US20240344138A1, “TARGETED THERAPIES IN CANCER” (Feng Biosciences, Inc, priority 2021, published 2024)
